In the Immune Epitope Database (IEDB) one finds Kd data, which are given here for 66 sequences.

The first assay deals with HLA-A*03:01. Kind of assay: IEDB peptide-MHC binding, purified MHC/direct/fluorescence; filed as Kd, often an IC50 or EC50 that approximates it; ≥ and ≤ were set here for values at or beyond the usual limits of such assays. Particulars: source organism: Coxiella burnetii.
Broadly, the Kd is the concentration at which binding is half-saturated. In the case of HFFMKHPNK, the Kd is 218 nM.

Staying with this assay, now noted: source organism: Cryptosporidium parvum.
FFAFGHMIK registered a Kd of at least 20000 nM.

Another assay addresses HLA-B*07:02. The description is as above. To be noted: source organism: Human immunodeficiency virus 1.
The sequence IPLTEEAEL returned a Kd of 5310 nM.

A further assay concerns the target HLA-A*01:01. In words: IEDB peptide-MHC binding, purified MHC/competitive/radioactivity; filed as Kd, often an IC50 or EC50 that approximates it; ≥ and ≤ were set here for values at or beyond the usual limits of such assays. To be noted: source organism: Dengue virus 1 Nauru/West Pac/1974.
For EAEPPFGESY, the Kd is 1360 nM.

The assay is the same for the next values; noted with them: source organism: Dengue virus 1 Singapore/S275/1990.
As to LTDFQSHQL, the Kd is 6440 nM.

Still in this assay, the particulars now being: source organism: Dengue virus 2 Jamaica/1409/1983.
Turning to ESEMIIPKNF, the Kd was at least 70400 nM. As to ITLTAALLLL, the Kd turned out to be 5940 nM.

The assay is the same for the next values; noted with them: source organism: Dengue virus 3 Martinique/1243/1999.
In the case of LTLTAAVLLL, the Kd is 13900 nM. The same measure, in the same setting: to TTEAILPEY belongs 30.6 nM; to VTTWENVPYL, 11300 nM.

The assay is the same for the next values; noted with them: source organism: Dengue virus 4 Philippines/H241/1956.
Consider DTSEVHWNY, for which the Kd is 111 nM. As to FTDPSSVAA, the dissociation constant (Kd) worked out at 1.71 nM.

As for LVQIENLEY, the Kd stood at 90.4 nM.

Still in this assay, the particulars now being: source organism: Homo sapiens.
PFDTRQMLFY: the Kd was found to be 252 nM.

The same assay, now with this note: source organism: Lassa virus Josiah.
With HYLCLNCLT, the Kd was 6910 nM.

The target of the next assay is HLA-A*02:02. The assay is described as above. To be noted: source organism: Lassa virus Josiah.
Regarding LNQAVNNLV, the Kd came to 510 nM.

Staying with this assay, now noted: source organism: Lymphocytic choriomeningitis virus (strain Armstrong).
For the sequence FMLNVSYLC, the Kd turned out to be 196 nM.

On to GTMPSLTMAC, for which the Kd is at least 25200 nM.

Still in this assay, the particulars now being: source organism: Mammarenavirus guanaritoense.
In the case of YVIGLLPQS, the Kd is at least 77700 nM.

The same assay, now with this note: source organism: Mammarenavirus lassaense.
Consider LLWDYMCIS, for which the Kd came to 146 nM. Turning to LNCLSLLLSV, the Kd was 123 nM.

The assay is the same for the next values; noted with them: source organism: Mammarenavirus machupoense.
Turning to LLDCIMYQS, the Kd amounted to 1530 nM.

The same assay, now with this note: source organism: Mammarenavirus whitewaterense.
For YCHGILLKDV, the Kd was at least 70000 nM.

The same assay, now with this note: source organism: SARS coronavirus Tor2.
For FLVLIMLII, the Kd stood at 1630 nM.

FTLLFQLCT: the equilibrium dissociation constant (Kd) stood at 1100 nM. The same measure, in the same setting: in the case of HAFLCLFLL it was 20.7 nM; in that of KLMGHFSWWT, 64.4 nM; in that of LIVNSVLLFL, 3.67 nM. In the case of YLMCLSPLM, the Kd worked out at 0.137 nM.

The same assay, now with this note: source organism: Vaccinia virus WR.
Turning to EILSNTTKTL, the Kd was 345 nM. On the same count and under the same terms, to ELENKKVEYV belongs at least 21400 nM.

In the case of ELTSNCTRT, the Kd is at least 77800 nM. Regarding FLDWIKDIMT, the Kd came out at 424 nM.

With FTEEQQQSFM, the Kd came to 1120 nM. In the case of FTELENKKV, the Kd was found to be 19600 nM.

GVPHSVFIA: the Kd was determined as 5370 nM. Same read-out and setting: to IAGGVCYYL belongs 53.1 nM; to IAVSVYGAI, 1480 nM; to ILISLINSLV, 22.9 nM.

With IQYRQQLEL, the Kd is 511 nM. Still for that read-out and setting: in the case of ITDQTVNICI it was at least 70000 nM; in that of ITLILSNKL, 5110 nM; in that of IVSHLRASTT, 139 nM. As to IVVPVIDRL, the Kd stood at 144 nM.

Turning to IVYGRSNAIL, the Kd was 91.6 nM. On the same count and under the same terms, to KVLSIMAFIL belongs 2.32 nM; to LIKTLSPAHL, 1850 nM. On the same count and under the same terms, to LILSNKLLYA belongs 468 nM; to LTGTFVTAFI, 672 nM; to NTGMGMYYPT, at least 23400 nM. Still for that read-out and setting: in the case of NTITTFIPI it was 15500 nM. Take PLPSLEYGA: the Kd is 11400 nM. As for PLSPDTCLLA, the Kd is 11200 nM. Still for that read-out and setting: in the case of QIFNIISYII it was 288 nM. Turning to RLQMAGVEV, the Kd is 326 nM. In the case of SAGFTATICL, the Kd was found to be 6900 nM.

On to SIDHCSSFIV, for which the Kd came to 172 nM. In the case of TIESAKTKI, the Kd amounted to 16300 nM. On the same count and under the same terms, to TQFNFNGHT belongs at least 43300 nM. Regarding TQSGALEVLM, the Kd worked out at 836 nM. Regarding TVDVRNIVT, the Kd stood at 13400 nM. The same measure, in the same setting: in the case of VAKCCSKTNT it was 14700 nM. Same read-out and setting: in the case of VTGSYNLVDT it was at least 70000 nM; in that of YLYTEYFLFL, 0.684 nM.

Turning to YVILKDPRIA, the Kd came to 6010 nM. On the same count and under the same terms, in the case of YVSVMNFIPI it was 341 nM.

The next assay deals with HLA-A*02:03. Described as above. Particulars: source organism: Lassa virus Josiah.
In the case of LNQAVNNLV, the Kd was determined as 3350 nM.

Still in this assay, the particulars now being: source organism: Lymphocytic choriomeningitis virus (strain Armstrong).
For FMLNVSYLC, the Kd is 1250 nM. The same measure, in the same setting: in the case of GTMPSLTMAC it was 16300 nM.

Still in this assay, the particulars now being: source organism: Mammarenavirus guanaritoense.
On to YVIGLLPQS, for which the Kd is at least 78100 nM.

The assay is the same for the next values; noted with them: source organism: Mammarenavirus lassaense.
With LLWDYMCIS, the Kd turned out to be 596 nM.

As for LNCLSLLLSV, the Kd came to 230 nM.

The assay is the same for the next values; noted with them: source organism: Mammarenavirus machupoense.
With LLDCIMYQS, the Kd was found to be 2270 nM.

The assay is the same for the next values; noted with them: source organism: Mammarenavirus whitewaterense.
Turning to YCHGILLKDV, the Kd worked out at 13000 nM.

Staying with this assay, now noted: source organism: SARS coronavirus Tor2.
FLVLIMLII: the Kd came to 9730 nM. Consider FTLLFQLCT, for which the equilibrium dissociation constant (Kd) was determined as 744 nM. The same measure, in the same setting: in the case of HAFLCLFLL it was 46.5 nM; in that of KLMGHFSWWT, 213 nM. Same read-out and setting: to LIVNSVLLFL belongs 90.4 nM; to YLMCLSPLM, 0.297 nM.

The assay is the same for the next values; noted with them: source organism: Vaccinia virus WR.
Take EILSNTTKTL: the Kd turned out to be 101 nM. Regarding ELENKKVEYV, the Kd amounted to 3650 nM. The same measure, in the same setting: to ELTSNCTRT belongs at least 78100 nM; to FLDWIKDIMT, 146 nM. Still for that read-out and setting: to FTEEQQQSFM belongs 1750 nM; to FTELENKKV, 8080 nM.

Consider GVPHSVFIA, for which the Kd came to 3630 nM. Same read-out and setting: to IAGGVCYYL belongs 1680 nM; to IAVSVYGAI, 124 nM; to ILISLINSLV, 3.08 nM. Still for that read-out and setting: in the case of IQYRQQLEL it was 44.9 nM; in that of ITDQTVNICI, at least 70400 nM. The same measure, in the same setting: in the case of ITLILSNKL it was 17100 nM; in that of IVSHLRASTT, 111 nM; in that of IVVPVIDRL, 226 nM. Turning to IVYGRSNAIL, the Kd was determined as 33.4 nM.
